The record followed here is patent publication US20260049138A1 (Chugai, published 2026).

B1: CE115HA000 A52aY one-arm antibody (antibody, human IgG1, kappa, L234A L235A, N297A, name in Kabat numbering)
heavy: QVQLVESGGGVVQPGRSLRLSCAASGFTFSNAWMHWVRQAPGKGLEWVAQIKYKSNNYATYYAESVKGRFTISRDDSKNSLYLQMNSLKTEDTAVYYCRYVHYGAYYGVDAWGQGTTVTVSSASTKGPSVFPLAPSSKSTSGGTAALGCLVKDYFPEPVTVSWNSGALTSGVHTFPAVLQSSGLYSLSSVVTVPSSSLGTQTYICNVNHKPSNTKVDKKVEPKSCDKTHTCPPCPAPEAAGGPSVFLFPPKPKDTLMISRTPEVTCVVVDVSHEDPEVKFNWYVDGVEVHNAKTKPREEQYASTYRVVSVLTVLHQDWLNGKEYKCKVSNKALPAPIEKTISKAKGQPREPQVYTLPPSRCELTKNQVSLSCAVKGFYPSDIAVEWESNGQPENNYKTTPPVLDSDGSFFLVSKLTVDKSRWQQGNVFSCSVMHEALHNHYTQKSLSLSPDYKDDDDK
chain: EPKSSDKTHTCPPCPAPELLGGPSVFLFPPKPKDTLMISRTPEVTCVVVDVSHEDPEVKFNWYVDGVEVHNAKTKPREEQYNSTYRVVSVLTVLHQDWLNGKEYKCKVSNKALPAPIEKTISKAKGQPREPQVCTLPPSRDELTKNQVSLWCLVKGFYPSDIAVEWESNGQPENNYKTTPPVLDSDGSFFLYSKLTVDKSRWQQGNVFSCSVMHEALHNRYTQKSLSLSP
light: DIVMTQSPLSLPVTPGEPASISCRSSQSLVHSNRNTYLHWYQQKPGQAPRLLIYKVSNRFSGVPDRFSGSGSGTDFTLKISRVEAEDVGVYYCGQGTQVPYTFGQGTKLEIKRTVAAPSVFIFPPSDEQLKSGTASVVCLLNNFYPREAKVQWKVDNALQSGNSQESVTEQDSKDSTYSLSSTLTLSKADYEKHKVYACEVTHQGLSSPVTKSFNRGEC
B2: CE115HA000 A56N one-arm antibody (antibody, human IgG1, kappa, L234A L235A, N297A, name in Kabat numbering)
heavy: QVQLVESGGGVVQPGRSLRLSCAASGFTFSNAWMHWVRQAPGKGLEWVAQIKAKSNNYNTYYAESVKGRFTISRDDSKNSLYLQMNSLKTEDTAVYYCRYVHYGAYYGVDAWGQGTTVTVSSASTKGPSVFPLAPSSKSTSGGTAALGCLVKDYFPEPVTVSWNSGALTSGVHTFPAVLQSSGLYSLSSVVTVPSSSLGTQTYICNVNHKPSNTKVDKKVEPKSCDKTHTCPPCPAPEAAGGPSVFLFPPKPKDTLMISRTPEVTCVVVDVSHEDPEVKFNWYVDGVEVHNAKTKPREEQYASTYRVVSVLTVLHQDWLNGKEYKCKVSNKALPAPIEKTISKAKGQPREPQVYTLPPSRCELTKNQVSLSCAVKGFYPSDIAVEWESNGQPENNYKTTPPVLDSDGSFFLVSKLTVDKSRWQQGNVFSCSVMHEALHNHYTQKSLSLSPDYKDDDDK
chain: EPKSSDKTHTCPPCPAPELLGGPSVFLFPPKPKDTLMISRTPEVTCVVVDVSHEDPEVKFNWYVDGVEVHNAKTKPREEQYNSTYRVVSVLTVLHQDWLNGKEYKCKVSNKALPAPIEKTISKAKGQPREPQVCTLPPSRDELTKNQVSLWCLVKGFYPSDIAVEWESNGQPENNYKTTPPVLDSDGSFFLYSKLTVDKSRWQQGNVFSCSVMHEALHNRYTQKSLSLSP
light: DIVMTQSPLSLPVTPGEPASISCRSSQSLVHSNRNTYLHWYQQKPGQAPRLLIYKVSNRFSGVPDRFSGSGSGTDFTLKISRVEAEDVGVYYCGQGTQVPYTFGQGTKLEIKRTVAAPSVFIFPPSDEQLKSGTASVVCLLNNFYPREAKVQWKVDNALQSGNSQESVTEQDSKDSTYSLSSTLTLSKADYEKHKVYACEVTHQGLSSPVTKSFNRGEC
B3: CE115HA000 A56D one-arm antibody (antibody, human IgG1, kappa, L234A L235A, N297A, name in Kabat numbering)
heavy: QVQLVESGGGVVQPGRSLRLSCAASGFTFSNAWMHWVRQAPGKGLEWVAQIKAKSNNYDTYYAESVKGRFTISRDDSKNSLYLQMNSLKTEDTAVYYCRYVHYGAYYGVDAWGQGTTVTVSSASTKGPSVFPLAPSSKSTSGGTAALGCLVKDYFPEPVTVSWNSGALTSGVHTFPAVLQSSGLYSLSSVVTVPSSSLGTQTYICNVNHKPSNTKVDKKVEPKSCDKTHTCPPCPAPEAAGGPSVFLFPPKPKDTLMISRTPEVTCVVVDVSHEDPEVKFNWYVDGVEVHNAKTKPREEQYASTYRVVSVLTVLHQDWLNGKEYKCKVSNKALPAPIEKTISKAKGQPREPQVYTLPPSRCELTKNQVSLSCAVKGFYPSDIAVEWESNGQPENNYKTTPPVLDSDGSFFLVSKLTVDKSRWQQGNVFSCSVMHEALHNHYTQKSLSLSPDYKDDDDK
chain: EPKSSDKTHTCPPCPAPELLGGPSVFLFPPKPKDTLMISRTPEVTCVVVDVSHEDPEVKFNWYVDGVEVHNAKTKPREEQYNSTYRVVSVLTVLHQDWLNGKEYKCKVSNKALPAPIEKTISKAKGQPREPQVCTLPPSRDELTKNQVSLWCLVKGFYPSDIAVEWESNGQPENNYKTTPPVLDSDGSFFLYSKLTVDKSRWQQGNVFSCSVMHEALHNRYTQKSLSLSP
light: DIVMTQSPLSLPVTPGEPASISCRSSQSLVHSNRNTYLHWYQQKPGQAPRLLIYKVSNRFSGVPDRFSGSGSGTDFTLKISRVEAEDVGVYYCGQGTQVPYTFGQGTKLEIKRTVAAPSVFIFPPSDEQLKSGTASVVCLLNNFYPREAKVQWKVDNALQSGNSQESVTEQDSKDSTYSLSSTLTLSKADYEKHKVYACEVTHQGLSSPVTKSFNRGEC
B4: CE115HA000 A56G one-arm antibody (antibody, human IgG1, kappa, L234A L235A, N297A, name in Kabat numbering)
heavy: QVQLVESGGGVVQPGRSLRLSCAASGFTFSNAWMHWVRQAPGKGLEWVAQIKAKSNNYGTYYAESVKGRFTISRDDSKNSLYLQMNSLKTEDTAVYYCRYVHYGAYYGVDAWGQGTTVTVSSASTKGPSVFPLAPSSKSTSGGTAALGCLVKDYFPEPVTVSWNSGALTSGVHTFPAVLQSSGLYSLSSVVTVPSSSLGTQTYICNVNHKPSNTKVDKKVEPKSCDKTHTCPPCPAPEAAGGPSVFLFPPKPKDTLMISRTPEVTCVVVDVSHEDPEVKFNWYVDGVEVHNAKTKPREEQYASTYRVVSVLTVLHQDWLNGKEYKCKVSNKALPAPIEKTISKAKGQPREPQVYTLPPSRCELTKNQVSLSCAVKGFYPSDIAVEWESNGQPENNYKTTPPVLDSDGSFFLVSKLTVDKSRWQQGNVFSCSVMHEALHNHYTQKSLSLSPDYKDDDDK
chain: EPKSSDKTHTCPPCPAPELLGGPSVFLFPPKPKDTLMISRTPEVTCVVVDVSHEDPEVKFNWYVDGVEVHNAKTKPREEQYNSTYRVVSVLTVLHQDWLNGKEYKCKVSNKALPAPIEKTISKAKGQPREPQVCTLPPSRDELTKNQVSLWCLVKGFYPSDIAVEWESNGQPENNYKTTPPVLDSDGSFFLYSKLTVDKSRWQQGNVFSCSVMHEALHNRYTQKSLSLSP
light: DIVMTQSPLSLPVTPGEPASISCRSSQSLVHSNRNTYLHWYQQKPGQAPRLLIYKVSNRFSGVPDRFSGSGSGTDFTLKISRVEAEDVGVYYCGQGTQVPYTFGQGTKLEIKRTVAAPSVFIFPPSDEQLKSGTASVVCLLNNFYPREAKVQWKVDNALQSGNSQESVTEQDSKDSTYSLSSTLTLSKADYEKHKVYACEVTHQGLSSPVTKSFNRGEC
B5: CE115HA000 A56L one-arm antibody (antibody, human IgG1, kappa, L234A L235A, N297A, name in Kabat numbering)
heavy: QVQLVESGGGVVQPGRSLRLSCAASGFTFSNAWMHWVRQAPGKGLEWVAQIKAKSNNYLTYYAESVKGRFTISRDDSKNSLYLQMNSLKTEDTAVYYCRYVHYGAYYGVDAWGQGTTVTVSSASTKGPSVFPLAPSSKSTSGGTAALGCLVKDYFPEPVTVSWNSGALTSGVHTFPAVLQSSGLYSLSSVVTVPSSSLGTQTYICNVNHKPSNTKVDKKVEPKSCDKTHTCPPCPAPEAAGGPSVFLFPPKPKDTLMISRTPEVTCVVVDVSHEDPEVKFNWYVDGVEVHNAKTKPREEQYASTYRVVSVLTVLHQDWLNGKEYKCKVSNKALPAPIEKTISKAKGQPREPQVYTLPPSRCELTKNQVSLSCAVKGFYPSDIAVEWESNGQPENNYKTTPPVLDSDGSFFLVSKLTVDKSRWQQGNVFSCSVMHEALHNHYTQKSLSLSPDYKDDDDK
chain: EPKSSDKTHTCPPCPAPELLGGPSVFLFPPKPKDTLMISRTPEVTCVVVDVSHEDPEVKFNWYVDGVEVHNAKTKPREEQYNSTYRVVSVLTVLHQDWLNGKEYKCKVSNKALPAPIEKTISKAKGQPREPQVCTLPPSRDELTKNQVSLWCLVKGFYPSDIAVEWESNGQPENNYKTTPPVLDSDGSFFLYSKLTVDKSRWQQGNVFSCSVMHEALHNRYTQKSLSLSP
light: DIVMTQSPLSLPVTPGEPASISCRSSQSLVHSNRNTYLHWYQQKPGQAPRLLIYKVSNRFSGVPDRFSGSGSGTDFTLKISRVEAEDVGVYYCGQGTQVPYTFGQGTKLEIKRTVAAPSVFIFPPSDEQLKSGTASVVCLLNNFYPREAKVQWKVDNALQSGNSQESVTEQDSKDSTYSLSSTLTLSKADYEKHKVYACEVTHQGLSSPVTKSFNRGEC
B6: CE115HA000 A56K one-arm antibody (antibody, human IgG1, kappa, L234A L235A, N297A, name in Kabat numbering)
heavy: QVQLVESGGGVVQPGRSLRLSCAASGFTFSNAWMHWVRQAPGKGLEWVAQIKAKSNNYKTYYAESVKGRFTISRDDSKNSLYLQMNSLKTEDTAVYYCRYVHYGAYYGVDAWGQGTTVTVSSASTKGPSVFPLAPSSKSTSGGTAALGCLVKDYFPEPVTVSWNSGALTSGVHTFPAVLQSSGLYSLSSVVTVPSSSLGTQTYICNVNHKPSNTKVDKKVEPKSCDKTHTCPPCPAPEAAGGPSVFLFPPKPKDTLMISRTPEVTCVVVDVSHEDPEVKFNWYVDGVEVHNAKTKPREEQYASTYRVVSVLTVLHQDWLNGKEYKCKVSNKALPAPIEKTISKAKGQPREPQVYTLPPSRCELTKNQVSLSCAVKGFYPSDIAVEWESNGQPENNYKTTPPVLDSDGSFFLVSKLTVDKSRWQQGNVFSCSVMHEALHNHYTQKSLSLSPDYKDDDDK
chain: EPKSSDKTHTCPPCPAPELLGGPSVFLFPPKPKDTLMISRTPEVTCVVVDVSHEDPEVKFNWYVDGVEVHNAKTKPREEQYNSTYRVVSVLTVLHQDWLNGKEYKCKVSNKALPAPIEKTISKAKGQPREPQVCTLPPSRDELTKNQVSLWCLVKGFYPSDIAVEWESNGQPENNYKTTPPVLDSDGSFFLYSKLTVDKSRWQQGNVFSCSVMHEALHNRYTQKSLSLSP
light: DIVMTQSPLSLPVTPGEPASISCRSSQSLVHSNRNTYLHWYQQKPGQAPRLLIYKVSNRFSGVPDRFSGSGSGTDFTLKISRVEAEDVGVYYCGQGTQVPYTFGQGTKLEIKRTVAAPSVFIFPPSDEQLKSGTASVVCLLNNFYPREAKVQWKVDNALQSGNSQESVTEQDSKDSTYSLSSTLTLSKADYEKHKVYACEVTHQGLSSPVTKSFNRGEC

For this assay, the target named is T1, CD3ε homodimer protein (human, UniProt P07766 23-126, limits assumed, sulfo-tag or biotin label in the ECL assays; amine-coupled to the chip in SPR).
T1 construct: also called human CD3ε homodimer protein; CD3 (CD3ε)
T1 sequence (P07766 23-126 limits assumed): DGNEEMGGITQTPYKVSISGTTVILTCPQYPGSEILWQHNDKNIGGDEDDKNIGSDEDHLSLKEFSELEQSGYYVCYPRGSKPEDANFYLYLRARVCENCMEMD
Nature of the assay: SPR Biacore T200; CD3ε homodimer on CM4 chip.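 Further: Single-residue variant antibodies injected as analyte over CD3ε homodimer immobilized by amine coupling, run at 25 °C in HBS-EP+ buffer.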 For orientation: Surface plasmon resonance follows binding to a sensor surface in real time, without labels.
With B1, the “ratio of amounts bound Z=Y/X (altered form / CE115HA000)” value came to 0.31.
Then B2, with 0.67.
Then B3, with 0.51; and B4, with 0.61.
With B5, the “ratio of amounts bound Z=Y/X (altered form / CE115HA000)” value is 0.8.
Then B6, with 1.35.
